Assay results as given in paper PMC7263589, “Integration of phage and yeast display platforms: A reliable and cost effective approach for binning of peptides as displayed on-phage” (PLoS ONE, 2020).

Tests used:
IL-23 = molecular target: T1, IL-23 (Homo sapiens, UniProt P29460+Q9NPF7); experiment: SPR direct binding to captured IL-23-AVI (Biacore T200); conditions: IL-23-AVI captured on streptavidin chip, 25°C, 1:1 binding model, n = 1, 23–447 an estimate
T1 construct: made in house
T1 sequence (Q9NPF7 20-189): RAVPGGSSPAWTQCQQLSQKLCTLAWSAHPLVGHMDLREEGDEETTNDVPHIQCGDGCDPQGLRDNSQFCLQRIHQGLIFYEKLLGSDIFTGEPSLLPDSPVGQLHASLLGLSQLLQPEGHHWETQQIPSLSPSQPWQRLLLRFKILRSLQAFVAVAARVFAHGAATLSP
T1 sequence (P29460 23-328): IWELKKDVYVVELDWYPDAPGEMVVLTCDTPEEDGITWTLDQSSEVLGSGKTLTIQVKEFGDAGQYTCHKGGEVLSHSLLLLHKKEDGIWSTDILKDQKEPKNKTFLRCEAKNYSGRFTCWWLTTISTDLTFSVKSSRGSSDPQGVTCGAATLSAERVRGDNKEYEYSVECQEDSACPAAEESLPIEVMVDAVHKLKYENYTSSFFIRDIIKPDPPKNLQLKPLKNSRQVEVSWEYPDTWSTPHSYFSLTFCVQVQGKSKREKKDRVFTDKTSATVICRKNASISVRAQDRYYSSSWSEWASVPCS
Method: SPR (Biacore T200, GE Healthcare) was used to determine binding constants of the peptides against IL-23 and their competitiveness to IL-23R. All SPR experiments were performed at 25°C with flow rate of 50 μl/min. Assay buffer used in direct binding experiment was 10 mM HEPES pH 7.5, 150 mM NaCl, 0.005% P20, and 3% DMSO. Assay buffer used in competition experiment was 10 mM HEPES pH 7.5, 150 mM NaCl, 0.005% P20, and 1% BSA. All peptides were reconstituted first in DMSO as 10 mM stocks and then diluted into assay buffer. The proteins used in direct binding and competition SPR are described in S1 Table in S1 File. For direct binding of peptides against IL-23, 2000–9000 RU of IL-23-AVI was captured to streptavidin sensor chips (GE Healthcare, Series S Sensor Chip SA, BR-1005-31). Dilution series with 3-fold increment were prepared for each peptide. Initially, all peptides were tested up to 30 μM. Concentration range for some were then lowered accordingly based on affinity or nuisance behavior at high concentrations. SPR “multi-cycle” type was used for peptides 23–644, 23–437, 23–441, 23–446, and 23–447. Each cycle consisted of 30s of analyte injection and then 60s of buffer flow to monitor dissociation. “Single cycle kinetics” (SCK) type was used for 23–652 due to their long dissociation half-lives. Each SCK cycle consisted of five 60s injections of sample in increasing concentration with a final 600s of dissociation. To study IL-23 and IL-23R interaction, 200–1000 RU of IL-23-AVI and IL-23R-Fc-AVI were captured to streptavidin sensor chip. Dilution series with 3-fold increment of IL-23R-FLAG-HIS and IL-23-HIS were run in SCK cycle type as described above except the final dissociation time were 60-300s. Sensorgrams from the entire titration series for each sample were fitted globally to extract binding kinetics and affinity using Biacore T200 Evaluation Software 2.0 (GE Healthcare) according to a 1:1 binding model. To identify IL-23 binders that can block receptor binding, a competition SPR was established. In each SPR cycle, fresh IL-23R was capture (<1000 RU) by injecting 10 μg/ml of IL-23R-Fc-AVI to a Protein-A flow cell at 10 μl/min flow rate for 30s. Analyte consisted of a mixture of 20 nM of IL-23 protein and a single concentration of peptide was then injected for 30s at 50 μl/min to observe IL-23 binding. Finally, the Protein-A surface was regenerated by 10 mM Glycine pH 1.5 for 30s at 30 μl/min. IL-23 at 20 nM without peptide, “IL-23 only”, was used as control to quantify IL-23 binding without blockage; while “cold” IL-23R was used as a positive control for blockage.

IL-23 binding to IL-23R = experiment: Competition SPR: IL-23 binding to captured IL-23R-Fc-AVI in the presence of peptide; conditions: concentration tested 0.1 μM; 20 nM IL-23, IL-23R-Fc-AVI on Protein-A, 30 s injection, 1% BSA buffer; n = 1
Method: SPR (Biacore T200, GE Healthcare) was used to determine binding constants of the peptides against IL-23 and their competitiveness to IL-23R. All SPR experiments were performed at 25°C with flow rate of 50 μl/min. Assay buffer used in direct binding experiment was 10 mM HEPES pH 7.5, 150 mM NaCl, 0.005% P20, and 3% DMSO. Assay buffer used in competition experiment was 10 mM HEPES pH 7.5, 150 mM NaCl, 0.005% P20, and 1% BSA. All peptides were reconstituted first in DMSO as 10 mM stocks and then diluted into assay buffer. The proteins used in direct binding and competition SPR are described in S1 Table in S1 File. For direct binding of peptides against IL-23, 2000–9000 RU of IL-23-AVI was captured to streptavidin sensor chips (GE Healthcare, Series S Sensor Chip SA, BR-1005-31). Dilution series with 3-fold increment were prepared for each peptide. Initially, all peptides were tested up to 30 μM. […] IL-23 at 20 nM without peptide, “IL-23 only”, was used as control to quantify IL-23 binding without blockage; while “cold” IL-23R was used as a positive control for blockage.
The design of competition SPR was based on a knockdown assay (Fig 5A). […] Response levels of IL-23 plus peptide were measured post injection (Fig 5B) to avoid possible bulk RI difference between analyte and running buffer. […]

B1: IL-23R: IL23R ECD (aa 1-353) with C-terminal Flag and HIS tags produced in HEK293 cells; positive control for blockage (protein)
chain: GITNINCSGHIWVEPATIFKMGMNISIYCQAAIKNCQPRKLHFYKNGIKERFQITRINKTTARLWYKNFLEPHASMYCTAECPKHFQETLICGKDISSGYPPDIPDEVTCVIYEYSGNMTCTWNAGKLTYIDTKYVVHVKSLETEEEQQYLTSSYINISTDSLQGGKKYLVWVQAANALGMEESKQLQIHLDDIVIPSAAVISRAETINATVPKTIIYWDSQTTIEKVSCEMRYKATTNQTWNVKEFDTNFTYVQQSEFYLEPNIKYVFQVRCQETGKRYWQPWSSLFFHKTPETVPQVTSKAFQHDTWNSGLTVASISTGHLTSDNRGDIGLLLGMIVFAVMLSILSLIGIFNRSFRTGIKRRILLLIPKWLYEDIPNMKNSNVVKMLQENSELMNNNSSEQVLYVDPMITEIKEIFIPEHKPTDYKKENTGPLETRDYPQNSLFDNTTVVYIPDLNTGYKPQISNFLPEGSHLSNNNEITSLTLKPPVDSLDSGNNPRLQKHPNFAFSVSSVNSLSNTIFLGELSLILNQGECSSPDIQNSVEEETTMLLENDSPSETIPEQTLLPDEFVSCLGIVNEELPSINTYFPQNILESHFNRISLLEK
modifications: fluorescent label (dye and site not stated)
In the case of B1, the kd (IL-23) is reported as 0.00151 s⁻¹, the ka (IL-23; 50 μl/min, 10 mM HEPES pH 7.5, 150 mM NaCl, 0.005% P20, 3% DMSO, multi-cycle (single cycle kinetics for 23–652 and IL-23R)) is reported as 170000 M⁻¹ s⁻¹ and the “Competition SPR %Inhibition” value (IL-23 binding to IL-23R) is reported as 98.0%.
